The subject of data set [1] is HeLa Kyoto. Put plainly: thermal stability score vs G1/S (z-score of summed log2 fold changes over temperatures); higher = more thermally stable than in G1/S.
The test system of data set [2] is HeLa Kyoto. Description: solubility change mitosis vs G1/S (difference of NP-40 vs SDS log2 ratios) (log2 ratio difference); higher = more soluble in mitosis.
For data set [3], the system named is HeLa Kyoto. Description: solubility in G1/S (NP-40 vs SDS abundance) (log2 ratio); higher = more soluble. As to conditions: cell cycle stage: G1/S.
In data set [4] the test system is HeLa Kyoto. Put plainly: melting temperature (median over replicates), in situ; higher = more thermally stable.
Setting [5] is: cell cycle stage: early G1 (4.5 h after nocodazole release).
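Wherever melting temperature (median over replicates), in situ is given: HeLa Kyoto cells synchronized by double thymidine or nocodazole block, proteins quantified by TMT10plex mass spectrometry, three independent biological replicates.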
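Wherever solubility change mitosis vs G1/S (difference of NP-40 vs SDS log2 ratios) is given: synchronized HeLa Kyoto cells (double thymidine block for G1/S, nocodazole release for mitosis), protein amounts in NP-40 versus SDS lysates quantified by mass spectrometry, three biological replicates.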
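Wherever solubility in G1/S (NP-40 vs SDS abundance) is given: HeLa Kyoto cells arrested at G1/S by double thymidine block, proteins quantified by TMT10plex mass spectrometry in mild NP-40 versus SDS extracts, three biological replicates.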
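Wherever thermal stability score vs G1/S (z-score of summed log2 fold changes over temperatures) is given: synchronized HeLa Kyoto cells, proteins quantified by TMT10plex mass spectrometry, three biological replicates, mitosis taken 0.5 h after nocodazole release, G1/S directly after double thymidine block.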

Take “MCAARLAAAAAAAQSVYAFSARPLAGGEPVSLGSLRGKVLLIENVASLUGTTVRDYTQMNELQRRLGPRGLVVLGFPCNQFGHQENAKNEEILNSLKYVRPGGGFEPNFMLFEKCEVNGAGAHPLFAFLREALPAPSDDATALMTDPKLITWSPVCRNDVAWNFEKFLVGPDGVPLRRYSRRFQTIDIEPDIEALLSQGPSCA [GPX1]”: the results for the thermal stability score in data set [1] (setting [5]) and in data set [1] (cell cycle stage: mitosis) were 1.13 and -0.307, respectively. The “solubility change mitosis (log2)” value in data set [2] was -0.15. Also, the “solubility in G1/S (log2)” value in data set [3] is 0.559. The melting temperature in data set [4] (cell cycle stage: G1/S) was determined as 56.8 °C; in data set [4] (cell cycle stage: mitosis) it was 56.6 °C.
As to “MCASVKYNIRGPALIPRMKTKHRIYYITLFSIVLLGLIATGMFQFWPHSIESSNDWNVEKRSIRDVPVVRLPADSPIPERGDLSCRMHTCFDVYRCGFNPKNKIKVYIYALKKYVDDFGVSVSNTISREYNELLMAISDSDYYTDDINRACLFVPSIDVLNQNTLRIKETAQAMAQLSRWDRGTNHLLFNMLPGGPPDYNTALDVPRDRALLAGGGFSTWTYRQGYDVSIPVYSPLSAEVDLPEKGPGPRQYFLLSSQVGLHPEYREDLEALQVKHGESVLVLDKCTNLSEGVLSVRKRCHKHQVFDYPQVLQEATFCVVLRGARLGQAVLSDVLQAGCVPVVIADSYILPFSEVLDWKRASVVVPEEKMSDVYSILQSIPQRQIEEMQRQARWFWEAYFQSIKAIALATLQIINDRIYPYAAISYEEWNDPPAVKWGSVSNPLFLPLIPPQSQGFTAIVLTYDRVESLFRVITEVSKVPSLSKLLVVWNNQNKNPPEDSLWPKIRVPLKVVRTAENKLSNRFFPYDEIETEAVLAIDDDIIMLTSDELQFGYEVWREFPDRLVGYPGRLHLWDHEMNKWKYESEWTNEVSMVLTGAAFYHKYFNYLYTYKMPGDIKNWVDAHMNCEDIAMNFLVANVTGKAVIKVTPRKKFKCPECTAIDGLSLDQTHMVERSECINKFASVFGTMPLKVVEHRADPVLYKDDFPEKLKSFPNIGSL [EXT2]”, the thermal stability score in data set [1] (setting [5]) was -1.61; in data set [1] (cell cycle stage: mitosis), -1.33. In addition, in data set [2], the “solubility change mitosis (log2)” value came to 0.0664. Besides, the “solubility in G1/S (log2)” value in data set [3] is -0.537. Moreover, the melting temperature in data set [4] (cell cycle stage: G1/S) came out at 54 °C; in data set [4] (cell cycle stage: mitosis), 53.4 °C.
Take “MCGIFAYLNYHVPRTRREILETLIKGLQRLEYRGYDSAGVGFDGGNDKDWEANACKIQLIKKKGKVKALDEEVHKQQDMDLDIEFDVHLGIAHTRWATHGEPSPVNSHPQRSDKNNEFIVIHNGIITNYKDLKKFLESKGYDFESETDTETIAKLVKYMYDNRESQDTSFTTLVERVIQQLEGAFALVFKSVHFPGQAVGTRRGSPLLIGVRSEHKLSTDHIPILYRTARTQIGSKFTRWGSQGERGKDKKGSCNLSRVDSTTCLFPVEEKAVEYYFASDASAVIEHTNRVIFLEDDDVAAVVDGRLSIHRIKRTAGDHPGRAVQTLQMELQQIMKGNFSSFMQKEIFEQPESVVNTMRGRVNFDDYTVNLGGLKDHIKEIQRCRRLILIACGTSYHAGVATRQVLEELTELPVMVELASDFLDRNTPVFRDDVCFFLSQSGETADTLMGLRYCKERGALTVGITNTVGSSISRETDCGVHINAGPEIGVASTKAYTSQFVSLVMFALMMCDDRISMQERRKEIMLGLKRLPDLIKEVLSMDDEIQKLATELYHQKSVLIMGRGYHYATCLEGALKIKEITYMHSEGILAGELKHGPLALVDKLMPVIMIIMRDHTYAKCQNALQQVVARQGRPVVICDKEDTETIKNTKRTIKVPHSVDCLQGILSVIPLQLLAFHLAVLRGYDVDFPRNLAKSVTVE [GFPT1]”: the thermal stability score in data set [1] (setting [5]) is -0.54; in data set [1] (cell cycle stage: mitosis), 0.683. Moreover, the “solubility change mitosis (log2)” value in data set [2] was -0.226. Besides, the “solubility in G1/S (log2)” value in data set [3] is -0.169. Moreover, the values for the melting temperature in data set [4] (cell cycle stage: G1/S) and in data set [4] (cell cycle stage: mitosis) were 56.1 °C and 56.2 °C, respectively.
In the case of “MCGIFAYMNYRVPRTRKEIFETLIKGLQRLEYRGYDSAGVAIDGNNHEVKERHIQLVKKRGKVKALDEELYKQDSMDLKVEFETHFGIAHTRWATHGVPSAVNSHPQRSDKGNEFVVIHNGIITNYKDLRKFLESKGYEFESETDTETIAKLIKYVFDNRETEDITFSTLVERVIQQLEGAFALVFKSVHYPGEAVATRRGSPLLIGVRSKYKLSTEQIPILYRTCTLENVKNICKTRMKRLDSSACLHAVGDKAVEFFFASDASAIIEHTNRVIFLEDDDIAAVADGKLSIHRVKRSASDDPSRAIQTLQMELQQIMKGNFSAFMQKEIFEQPESVFNTMRGRVNFETNTVLLGGLKDHLKEIRRCRRLIVIGCGTSYHAAVATRQVLEELTELPVMVELASDFLDRNTPVFRDDVCFFISQSGETADTLLALRYCKDRGALTVGVTNTVGSSISRETDCGVHINAGPEIGVASTKAYTSQFISLVMFGLMMSEDRISLQNRRQEIIRGLRSLPELIKEVLSLEEKIHDLALELYTQRSLLVMGRGYNYATCLEGALKIKEITYMHSEGILAGELKHGPLALIDKQMPVIMVIMKDPCFAKCQNALQQVTARQGRPIILCSKDDTESSKFAYKTIELPHTVDCLQGILSVIPLQLLSFHLAVLRGYDVDFPRNLAKSVTVE [GFPT2]”, the thermal stability score was -1.27 in data set [1] (setting [5]) and 0.586 in data set [1] (cell cycle stage: mitosis). The “solubility change mitosis (log2)” value in data set [2] is -0.124. Moreover, the “solubility in G1/S (log2)” value in data set [3] was -0.201. Besides, the melting temperature in data set [4] (cell cycle stage: G1/S) was determined as 54.3 °C; in data set [4] (cell cycle stage: mitosis) it was 53.9 °C.

Source of the values: the supplement of paper PMC5998384.
